Patent publication US20220195404

Biological target: TevCas9 H557A (I-TevI domain-linker-SaCas9 H557A nickase) (Enterobacteria phage T4 / Staphylococcus aureus) (UniProt P13299+J7RUA5)
Experiment: cleavage_in_vitro

Substance | binding signal (fold rate vs wild-type EGFR) (faster cleavage of exon 19 deletion, PAM not stated) | relative cleavage rate (fold rate (reference)) (4-fold slower than exon 19 deletion substrate)
EGFR guide RNA ; EGFR exon 19 deletion DNA substrate | 4 | –
EGFR guide RNA ; EGFR wild-type DNA substrate | – | 1
